Assay results taken from the supplement of paper PMC6757056.
± gives the standard deviation of the averaged measurements.

B1: library; a variant is named by its letters at N, in order (parent)
chain: GCUGUCACCGGUGCUUGGUACGUUAUAUUCAGCCGGUCUGAUGAGUCUNNNNNNAGACGAAACAGC

Tests used:
(6R,S)-folinic acid [1] = variants of: B1; assay: FACS-Seq fitted mean relative fluorescence mCherry/BFP without ligand (log10 relative fluorescence); HEK293T overexpressing SLC46A1; higher = higher reporter protein expression; settings: without (6R,S)-folinic acid; ligand present: no
Experimental: (§1)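 Hammerhead (sTRSV) ribozyme switch libraries with a ligand aptamer grafted on stem I and a randomized N4-6 loop II, cloned into the 3' UTR of mCherry and transiently transfected into HEK293T cells; RNA-Seq 72 h post transfection with ligand added 1 h before transfection; RNA read count / plasmid DNA read count normalized to the non-cleaving sTRSVctl (x100), log10; sequences with >100 DNA reads. FACS-Seq: lentiviral library sorted into 6 bins after 48 h ligand, log-normal fit mean of mCherry/BFP scaled to controls. Printed sequences are partial switch sequences.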

(6R,S)-folinic acid [2] = variants of: B1; assay: normalized RNA/DNA level without ligand (relative to sTRSVctl = 100) (log10 (% of sTRSVctl)); HEK293T overexpressing SLC46A1; higher = less ribozyme self-cleavage, higher mRNA level; settings: without (6R,S)-folinic acid; ligand present: no
Experimental: as §1

(6R,S)-folinic acid [3] = variants of: B1; assay: FACS-Seq fitted mean relative fluorescence mCherry/BFP with ligand (log10 relative fluorescence); HEK293T overexpressing SLC46A1; ligand concentration (+) FACS-Seq: 6 mM; higher = higher reporter protein expression; settings: with (6R,S)-folinic acid; ligand present: yes
Experimental: as §1

(6R,S)-folinic acid [4] = variants of: B1; assay: normalized RNA/DNA level with ligand (relative to sTRSVctl = 100) (log10 (% of sTRSVctl)); HEK293T overexpressing SLC46A1; ligand concentration (+) RNA-Seq: 6 mM; higher = less ribozyme self-cleavage, higher mRNA level; settings: with (6R,S)-folinic acid; ligand present: yes
Experimental: as §1

| Variant | FACS-Seq fitted mean (log10) ((6R,S)-folinic acid [1]) | normalized RNA/DNA level without ligand (log10) ((6R,S)-folinic acid [2]) | FACS-Seq fitted mean (log10) ((6R,S)-folinic acid [3]) | normalized RNA/DNA level with ligand (log10) ((6R,S)-folinic acid [4]) |
| --- | --- | --- | --- | --- |
| UACCGC | 0.235 ± 0.05 | 1.988 ± 0.017 | 0.503 ± 0.22 | 1.99 ± 0.066 |
| UACCGU | 0.352 ± 0.017 | 1.989 ± 0.0026 | 0.431 ± 0.11 | 2.02 ± 0.048 |
| UACCGG | 0.355 ± 0.059 | 1.982 ± 0.019 | 0.676 ± 0.1 | 2.004 ± 0.0069 |
| CACCAU | 0.138 ± 0.12 | 1.9842 ± 0.00094 | 0.347 ± 0.13 | 2 ± 0.011 |
| AACGAG | 0.367 ± 0.0092 | 1.82 ± 0.032 | 0.501 ± 0.065 | 1.984 ± 0.01 |
| AACGAA | 0.105 ± 0.2 | 1.9508 ± 0.00076 | 0.0527 ± 0.083 | 1.99 ± 0.045 |
| GACAUU | 0.457 ± 0.096 | 2.024 ± 0.013 | 0.529 ± 0.11 | 2 ± 0.064 |
| GACAUA | 0.346 ± 0.14 | 1.984 ± 0.0071 | 0.3032 ± 0.002 | 2.01 ± 0.044 |
| CAGCAU | 0.411 ± 0.13 | 1.96 ± 0.014 | 0.546 ± 0.21 | 2.01 ± 0.027 |
| AACGCA | 0.404 ± 0.048 | 2.001 ± 0.013 | 0.533 ± 0.023 | 2 ± 0.035 |
| AACGCC | 0.452 ± 0.091 | 2.0652 ± 0.0011 | 0.336 ± 0.023 | 2.07 ± 0.046 |
| AACGCU | 0.282 ± 0.034 | 2.01 ± 0.0054 | 0.217 ± 0.34 | 2 ± 0.035 |
| AACGUU | 0.445 ± 0.028 | 1.991 ± 0.012 | 0.286 ± 0.094 | 1.98 ± 0.038 |
| AACGUA | 0.196 ± 0.079 | 1.9883 ± 0.00019 | 0.207 ± 0.071 | 2.02 ± 0.026 |
| AACGUG | 0.4305 ± 0.0017 | 1.874 ± 0.0049 | 0.715 ± 0.2 | 1.98 ± 0.029 |
| UAGAAG | 0.056 ± 0.02 | 1.654 ± 0.0022 | 0.456 ± 0.0016 | 1.963 ± 0.019 |
| UAGAAU | 0.421 ± 0.089 | 1.921 ± 0.016 | 0.615 ± 0.02 | 2 ± 0.041 |
| UAGAAA | 0.332 ± 0.024 | 1.9239 ± 0.0006 | 0.254 ± 0.35 | 2.01 ± 0.023 |
| UACUAU | 0.437 ± 0.19 | 1.967 ± 0.018 | 0.489 ± 0.21 | 2.03 ± 0.023 |
| GACGCC | 0.287 ± 0.023 | 2.043 ± 0.0061 | 0.0736 ± 0.3 | 2.03 ± 0.028 |
| UACGGG | 0.198 ± 0.013 | 1.704 ± 0.0067 | 0.717 ± 0.3 | 1.97 ± 0.053 |
| UACGGU | 0.419 ± 0.099 | 1.918 ± 0.012 | 0.282 ± 0.041 | 1.98 ± 0.024 |
| UACGGA | 0.537 ± 0.046 | 1.8816 ± 0.00018 | 0.817 ± 0.11 | 2 ± 0.029 |
| CAGAUA | 0.631 ± 0.27 | 1.959 ± 0.008 | 0.663 ± 0.087 | 1.97 ± 0.027 |

| Variant | FACS-Seq fitted mean (log10) ((6R,S)-folinic acid [1]) | normalized RNA/DNA level without ligand (log10) ((6R,S)-folinic acid [2]) | FACS-Seq fitted mean (log10) ((6R,S)-folinic acid [3]) | normalized RNA/DNA level with ligand (log10) ((6R,S)-folinic acid [4]) |
| --- | --- | --- | --- | --- |
| AAGAGU | 0.413 ± 0.019 | 1.924 ± 0.0098 | 0.369 ± 0.0072 | 2.02 ± 0.047 |
| AAGAGA | 0.0158 ± 0.096 | 1.929 ± 0.0075 | 0.157 ± 0.024 | 2.03 ± 0.049 |
| AAGAGG | 0.589 ± 0.041 | 1.843 ± 0.0052 | 0.632 ± 0.11 | 1.99 ± 0.021 |
| GACGUA | 0.251 ± 0.023 | 1.9997 ± 0.00027 | 0.131 ± 0.26 | 2.03 ± 0.038 |
| GACGUG | 0.598 ± 0.2 | 1.946 ± 0.019 | 0.734 ± 0.17 | 2.01 ± 0.029 |
| UACGUG | 0.0454 ± 0.021 | 1.7 ± 0.018 | 0.518 ± 0.16 | 1.946 ± 0.011 |
| GAGCGA | 0.146 ± 0.064 | 1.997 ± 0.0086 | 0.145 ± 0.15 | 2.035 ± 0.011 |
| AACACG | 0.361 ± 0.13 | 1.938 ± 0.0019 | 0.436 ± 0.18 | 2 ± 0.045 |
| AAGACG | 0.519 ± 0.038 | 1.92 ± 0.0073 | 0.622 ± 0.38 | 2 ± 0.058 |
| AAGACA | 0.531 ± 0.012 | 1.985 ± 0.0083 | 0.754 ± 0.13 | 2.01 ± 0.023 |
| AAGAUA | -0.141 ± 0.082 | 1.959 ± 0.0077 | -0.581 ± 0.18 | 1.994 ± 0.015 |
| AAGAUU | 0.318 ± 0.11 | 2.007 ± 0.0072 | 0.312 ± 0.032 | 2.02 ± 0.022 |
| AAGAUG | 0.3831 ± 0.00047 | 1.8871 ± 0.00048 | 0.235 ± 0.29 | 1.997 ± 0.018 |
| AAGAUC | 0.442 ± 0.061 | 2.04 ± 0.0043 | 0.504 ± 0.1 | 2.02 ± 0.029 |
| UAGAUG | 0.3 ± 0.084 | 1.702 ± 0.0024 | 0.477 ± 0.13 | 1.97 ± 0.043 |
| GACCCU | 0.102 ± 0.065 | 2.065 ± 0.0032 | -0.257 ± 0.21 | 2.04 ± 0.035 |
| GAGAGG | 0.109 ± 0.067 | 1.901 ± 0.012 | 0.336 ± 0.41 | 2.03 ± 0.026 |
| GAGAGA | 0.2 ± 0.041 | 1.946 ± 0.011 | 0.279 ± 0.16 | 2.01 ± 0.038 |
| GAGAGU | 0.347 ± 0.02 | 1.982 ± 0.013 | 0.471 ± 0.28 | 2.014 ± 0.0034 |
| GAGCCA | 0.191 ± 0.0078 | 2.023 ± 0.02 | 0.281 ± 0.24 | 2.02 ± 0.047 |
| GAGCCG | 0.537 ± 0.069 | 2.047 ± 0.0093 | 0.419 ± 0.15 | 2.03 ± 0.05 |
| GAGCCU | 0.306 ± 0.041 | 2.076 ± 0.012 | 0.5133 ± 0.00087 | 2.062 ± 0.0057 |
| GACGAA | 0.551 ± 0.09 | 1.963 ± 0.0039 | 0.69 ± 0.21 | 2 ± 0.04 |
| GACGAU | 0.612 ± 0.086 | 1.954 ± 0.0091 | 0.648 ± 0.068 | 2 ± 0.037 |

| Variant | FACS-Seq fitted mean (log10) ((6R,S)-folinic acid [1]) | normalized RNA/DNA level without ligand (log10) ((6R,S)-folinic acid [2]) | FACS-Seq fitted mean (log10) ((6R,S)-folinic acid [3]) | normalized RNA/DNA level with ligand (log10) ((6R,S)-folinic acid [4]) |
| --- | --- | --- | --- | --- |
| GACGAG | -0.054 ± 0.034 | 1.907 ± 0.0022 | 0.319 ± 0.29 | 2.01 ± 0.037 |
| UAGCCU | 0.641 ± 0.044 | 2.02 ± 0.045 | 0.19 ± 0.0051 | 2.04 ± 0.037 |
| UAGCCG | 0.635 ± 0.13 | 1.86 ± 0.036 | 0.409 ± 0.069 | 1.99 ± 0.041 |
| CACGUA | 0.476 ± 0.1 | 1.989 ± 0.019 | 0.649 ± 0.35 | 2.01 ± 0.025 |
| CACUGA | 0.463 ± 0.077 | 2.012 ± 0.0079 | 0.325 ± 0.16 | 2.04 ± 0.028 |
| CACUGG | 0.801 ± 0.11 | 1.962 ± 0.013 | 0.687 ± 0.052 | 2.03 ± 0.021 |
| AAGCCU | 0.313 ± 0.032 | 2.056 ± 0.015 | 0.326 ± 0.052 | 2.03 ± 0.027 |
| AAGCAU | 0.218 ± 0.067 | 1.953 ± 0.019 | 0.102 ± 0.024 | 2.01 ± 0.039 |
| AAGCAA | 0.352 ± 0.078 | 1.964 ± 0.015 | 0.361 ± 0.1 | 1.994 ± 0.012 |
| GAGGAU | 0.372 ± 0.013 | 1.963 ± 0.0066 | 0.0226 ± 0.65 | 2.02 ± 0.033 |
| UACUUG | 0.275 ± 0.057 | 1.78 ± 0.022 | 0.607 ± 0.16 | 1.98 ± 0.045 |
| UACCUG | 0.402 ± 0.083 | 1.86 ± 0.039 | 0.39 ± 0.14 | 1.99 ± 0.052 |
| UACCUC | 0.402 ± 0.35 | 2.052 ± 0.0094 | 0.585 ± 0.43 | 2.04 ± 0.049 |
| UACUGG | 0.0573 ± 0.058 | 1.65 ± 0.049 | 0.433 ± 0.099 | 1.97 ± 0.039 |
| UACUGC | 0.238 ± 0.013 | 2.01 ± 0.0074 | 0.329 ± 0.25 | 2.02 ± 0.049 |
| CAGGAC | 0.301 ± 0.073 | 1.97 ± 0.022 | 0.0891 ± 0.079 | 1.97 ± 0.078 |
| GACAGG | 0.464 ± 0.089 | 1.959 ± 0.01 | 0.498 ± 0.27 | 2.02 ± 0.042 |
| GACAGA | 0.403 ± 0.0081 | 1.994 ± 0.017 | 0.442 ± 0.15 | 2.01 ± 0.035 |
| UAGACG | 0.218 ± 0.052 | 1.754 ± 0.0068 | 0.17 ± 0.055 | 1.97 ± 0.029 |
| UAGACA | 0.386 ± 0.0059 | 1.967 ± 0.0049 | 0.455 ± 0.17 | 2 ± 0.029 |
| UAGACU | 0.606 ± 0.02 | 2.0068 ± 0.00026 | 0.559 ± 0.038 | 1.98 ± 0.051 |
| CAGCUG | 0.118 ± 0.025 | 2.073 ± 0.01 | 0.1 ± 0.12 | 2.06 ± 0.022 |
| GACUUG | 0.321 ± 0.035 | 1.956 ± 0.018 | 0.389 ± 0.13 | 1.99 ± 0.039 |
| AACCCC | 0.581 ± 0.12 | 2.013 ± 0.0022 | 0.492 ± 0.041 | 1.99 ± 0.045 |
